The target in this assay is PD-1 receptor on the surface of T cells (human) (UniProt Q15116). Nature of the assay: cell-based or functional assay.
Sequence of UniProt Q15116 (Q15116 25-288): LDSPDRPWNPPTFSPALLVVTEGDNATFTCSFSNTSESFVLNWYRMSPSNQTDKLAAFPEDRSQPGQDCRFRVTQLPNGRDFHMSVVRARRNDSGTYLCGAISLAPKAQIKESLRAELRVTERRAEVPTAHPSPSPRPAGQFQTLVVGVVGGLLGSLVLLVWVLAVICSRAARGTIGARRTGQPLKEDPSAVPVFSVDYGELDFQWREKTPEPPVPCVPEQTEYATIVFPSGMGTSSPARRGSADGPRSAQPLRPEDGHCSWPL

For “PD-L1 traditional exosome (PD-L1 displayed by traditional engineering methods) (ligand)”, the percentage of activated (CD8+CD25+) T cells, flow cytometry; PD-L1 traditional exosome; unmodified exosome 34.1% stood at 22.5%.
